Results taken from publication PMC3710971 (Molecular Cell, 2013).

Columns and labels:
crystal structure = target: the molecule itself; experiment: crystal structure
[1] = target: HDAC1 (full-length, untagged) (UniProt Q13547 1-482); experiment: crystal structure
HDAC1 (full-length, untagged), sequence (Q13547 whole entry): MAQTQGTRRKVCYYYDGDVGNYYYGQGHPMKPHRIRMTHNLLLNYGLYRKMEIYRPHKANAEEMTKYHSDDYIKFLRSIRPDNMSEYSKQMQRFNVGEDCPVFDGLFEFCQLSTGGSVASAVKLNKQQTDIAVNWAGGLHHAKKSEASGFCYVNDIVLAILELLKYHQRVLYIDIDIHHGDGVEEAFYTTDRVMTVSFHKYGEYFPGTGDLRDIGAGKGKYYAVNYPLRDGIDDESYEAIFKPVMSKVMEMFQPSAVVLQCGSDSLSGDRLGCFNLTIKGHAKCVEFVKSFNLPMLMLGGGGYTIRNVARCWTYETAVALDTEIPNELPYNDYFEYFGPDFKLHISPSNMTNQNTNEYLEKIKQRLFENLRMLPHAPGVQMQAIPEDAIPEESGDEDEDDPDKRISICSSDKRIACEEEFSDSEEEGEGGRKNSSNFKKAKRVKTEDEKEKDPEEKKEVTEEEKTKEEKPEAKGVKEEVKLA

B1: ELM2-SANT domain of MTA1 (residues 162-335) (domain or fragment, UniProt Q13330 162-335, looked up)
chain: ADKGEIRVGNRYQADITDLLKEGEEDGRDQSRLETQVWEAHNPLTDKQIDQFLVVARSVGTFARALDCSSSVRQPSLHMSAAAASRDITLFHAMDTLHKNIYDISKAISALVPQGGPVLCRDEMEEWSASEANLFEEALEKYGKDFTDIQQDFLPWKSLTSIIEYYYMWKTTDR
binding result (crystal structure): binds | binding result [1]: binds
